Data taken from patent US20050053913A1.

Molecular target: AD-E2F1 (GAL4-AD fused to AA 159-437 of E2F1) (yeast; human) (UniProt P04386)
Test: cell-based or functional assay

growth on medium lacking histidine with 3AT (GAL1:HIS3 reporter): < 100 mM 3AT
Substance: DB-DP1 (GAL4-DB fused to DP1) (from UniProt P04386 1-147; Q14186 1-410)
